Measurements published in the supplement of paper PMC11865577.

What was measured:
Experiment in all cases: pull-down binding Z-score (relative to library population); higher = stronger binding
Settings in all cases: RNA library: Library-2
[1] = test system: TO-3-N3 (biotin conjugate)
In short: (§1)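 Streptavidin beads bearing 100 pmol of a biotin-conjugated small molecule were incubated for 60 min at 25 °C with 1 μg of heat-folded, Cy5- or Cy3-end-labelled RNA library in phosphate/NaCl/KCl buffer. Hot SDS eluted the RNA that stayed bound after three washes, and this RNA was hybridised for 20 h at 55.5 °C to a DNA barcode microarray. Binding was expressed as a Z-score against the library mean and standard deviation, after subtraction of a beads-only signal and trimmed averaging of barcoded replicate probes.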

[2] = test system: TO-N3-2 (biotin conjugate)
In short: as §1

[3] = test system: TO-N3 (biotin conjugate)
In short: as §1

[4] = test system: TO-3-N3-2 (biotin conjugate)
In short: as §1

Sequence	pull-down binding Z-score [1]	pull-down binding Z-score [2]	pull-down binding Z-score [3]	pull-down binding Z-score [4]
GCUUUGUCCAAAAUGCCCUUAAUGGGAACGGGGAUCCAAAUAACAUGGACAAAGC [IAV_invivo_M1_M2_7_Motif_6+IAV_invivo_M1_M2_7_Motif_6]	0.0624	-0.236	-0.155	0.353
GGAAAUGAUUCC [IAV_invivo_PB2_1_Motif_4+IAV_invivo_PB2_1_Motif_4]	-0.59	-1.3	-1.05	-0.712
GGAACCUAGUAAUAGGUUUCC [DMSMaPseq_invitro_SARS-CoV-2_Motif_479]	0.7	-0.779	0.439	-0.0496
GGAAGACCUUAAAUUCCCUCGAGGACAAGGCGUUCC	-0.756	-0.19	-0.658	-0.381
GGAAGAGACAGGUACGUUAAUAGUUAAUAGCGUACUUCUUUUUC	-0.226	-0.494	-0.585	-0.193
GGAAUAAGUACGAUACUUACCUG [U1snRNP5ss-5]	-0.215	1.56	0.464	0.089
GGAAUAAGUAUGAUACUUACCUG [U1snRNP5ss-6]	1.69	1.18	1.81	0.331
GGAAUGGAUCCC [IAV_invivo_NP_5_Motif_9+IAV_invivo_NP_5_Motif_9]	-0.119	-0.367	-0.323	-0.0967
GGAAUUGCAAUGUCGAUAGAUAUCCUGCUAAUUCC [DMSMaPseq_invitro_SARS-CoV-2_Motif_342]	-0.203	-0.212	-0.229	-0.418
GGAAUUGUGUUAAUUGUGAUACAUUCU [SHAPE_invitro_SARS-CoV-2_Motif_150]	-0.83	-0.855	-0.949	-0.388
GGAAUUUGAACC [IAV_invivo_PB2_1_Motif_28+IAV_invivo_PB2_1_Motif_28]	0.293	-0.514	0.0885	-0.147
GGACAAUUCACCUAAUUUAGCAUGGCCUCUUAUUGUAACAGCUUUAAGGGCCAAUUCUGCUGUCAAAUUACAGAAUAAUGAGCUUAGUCC	-0.496	-0.485	-0.563	-0.176
GGACCAGGAACUAAUCAGACAAGGAACUGAUUACAAACAUUGGCC [DMSMaPseq_invitro_SARS-CoV-2_Motif_522]	1.03	0.031	1.01	0.134
GGACCUGAGCGCACCUGUUGUCU [SHAPE_invivo_SARS-CoV-2_Motif_351]	0.863	1.67	1.58	0.645
GGACUUGAAAGAGCC	-0.384	-0.676	-0.45	-0.442
GGAGAAAAUUCC [IAV_invivo_PA_3_Motif_17+IAV_invivo_PA_3_Motif_17]	-0.517	-0.726	-0.797	-0.333
GGAGAAGAACCC [IAV_invivo_PB2_1_Motif_3+IAV_invivo_PB2_1_Motif_3]	-0.254	0.0437	-0.17	-0.0996
GGAGACAGGUGGUUUCUCAAUCGAUUUACCACAACUCU [SHAPE_invivo_SARS-CoV-2_Motif_209]	-0.078	-0.516	-0.19	-0.326
GGAGAGUGUGGACACUUAUGAAUGUCUUGACACUCGUU [SHAPE_invitro_SARS-CoV-2_Motif_211]	0.331	0.364	0.586	0.121
GGAGAGUGUUCAGACAUUCUUU [SHAPE_invitro_SARS-CoV-2_Motif_44]	-0.535	-0.602	-0.508	-0.361
GGAGAUGAGGCGUUGCCUCCUCC [IAV_invivo_PA_3_Motif_24+IAV_invivo_PA_3_Motif_24]	-0.646	-0.275	-1.01	-0.663

Sequence	pull-down binding Z-score [1]	pull-down binding Z-score [2]	pull-down binding Z-score [3]	pull-down binding Z-score [4]
GGAGGAGGAGGAGGAGGA [G4_r(GGA)6]	4.17	-1.68	2.99	7.36
GGAGGAGGAGGAGGAGGAGGAGGAGGAGGAGGAGGAGGAGGAGGAGGA [G4_r(GGA)16]	7.15	3.35	5.89	8.95
GGAGGGCCUUCUACGGAAGGAGUGCC [IAV_invivo_M1_M2_7_Motif_16+IAV_invivo_M1_M2_7_Motif_16]	0.296	1.57	0.646	-0.0132
GGAGGUUGCUAGUCAGGCUAGACAAAUGGUGCAAGCGAUGAGAACCAUUGGAACUCAUCCUAGCUCCAGUGCUGGUCUGAAAAAUGAUCUUC [IAV_invivo_M1_M2_7_Motif_15+IAV_invivo_M1_M2_7_Motif_15]	-0.55	0.839	-0.195	-0.816
GGAGUAAGUCUGAUACUUACCUG [U1snRNP5ss-1]	-0.0269	0.773	0.599	-0.152
GGAGUUCAAAUUGCUUCC [IAV_invivo_NP_5_Motif_19+IAV_invivo_NP_5_Motif_19]	-0.502	-0.604	-0.561	-0.404
GGAUCCCGACUGGCGAGAGCCAGGUAACGAAUGGAUCC [MG-aptamer]	-0.00379	2.4	0.277	-0.524
GGAUGAGAGAACUCAUCC [IAV_invivo_NP_5_Motif_6+IAV_invivo_NP_5_Motif_6]	-0.302	-0.939	-0.724	-0.323
GGAUGGUCUUCAAUCC [IAV_invivo_PB1_2_Motif_23+IAV_invivo_PB1_2_Motif_23]	-0.481	-0.515	-0.47	-0.137
GGAUGGUUACAGGACUAAGGAACAAUCCGUCC [IAV_invivo_HA_4_Motif_14+IAV_invivo_HA_4_Motif_14]	-0.461	-0.0521	-0.295	-0.14
GGAUGUCAAUCC [IAV_invivo_PB1_2_Motif_2+IAV_invivo_PB1_2_Motif_2]	0.302	-0.856	0.0736	-0.17
GGAUUGUACAGAAAGUGUGUUAAAUCC [SHAPE_invivo_SARS-CoV-2_Motif_47]	-0.22	-0.185	-0.222	0.139
GGAUUUCUGGACAUUUGGACAUAUAAUGCAGAAUUGUUAGUUCUACUGGAAAAUGAAAGGACUCUGGAUUUCC [IAV_invivo_HA_4_Motif_17+IAV_invivo_HA_4_Motif_17]	-0.659	0.395	-0.198	0.4
GGCAACUAGCACUCUCCAAGGGUGUUCACUUUGUUUGCAACUUGCUGUUGUUGUUUGUAACAGUUUACUCACACCUUUUGCUCGUUGCU [SHAPE_invitro_SARS-CoV-2_Motif_465]	-0.318	-0.0997	-0.358	-0.205
GGCACAAAUGCAACACUGCAUUACCAUGCGGUUGUGCC [3-way model-1_rpoH]	-1.03	-1.27	-1.42	-0.624
GGCAGACGUGGUCCAGAACAAACCCAAGGAAAUUUUGGGGACCAGGAACUAAUCAGACAAGGAACUGAUUACAAACAUUGGCC	0.608	0.614	0.753	0.536
GGCAGCGAGCC [IAV_invivo_NP_5_Motif_25+IAV_invivo_NP_5_Motif_25]	-0.756	-0.713	-1.01	-0.633
GGCAGUUUGUAUGUAAAUAAACAUGCAUUCC [SHAPE_invivo_SARS-CoV-2_Motif_362]	0.0152	-0.727	-0.216	-0.171
GGCAUCAUAUGGGUUGCAACUGAGGGAGCCUUGAAUACACCAAAAGAUCACAUUGGCACCCGCAAUCCUGCUAACAAUGCU [DMSMaPseq_invitro_SARS-CoV-2_Motif_513]	-0.63	0.342	-0.253	-0.241
GGCAUCUGCGGGCC [IAV_invivo_NP_5_Motif_21+IAV_invivo_NP_5_Motif_21]	-0.637	-0.239	-0.759	-0.641
GGCCAGCAGAGGCC [IAV_invivo_PA_3_Motif_7+IAV_invivo_PA_3_Motif_7]	0.905	-0.109	0.703	0.0485

Sequence	pull-down binding Z-score [1]	pull-down binding Z-score [2]	pull-down binding Z-score [3]	pull-down binding Z-score [4]
GGCCAGGUUUCAAGGCC [IAV_invivo_PA_3_Motif_22+IAV_invivo_PA_3_Motif_22]	-0.64	-0.29	-0.785	-0.644
GGCCAUUAGAGGCC [IAV_invivo_PB2_1_Motif_29+IAV_invivo_PB2_1_Motif_29]	0.0791	-1.06	-0.257	-0.69
GGCCCGAGUGAUGGGCU [IAV_invivo_NA_6_Motif_9+IAV_invivo_NA_6_Motif_9]	-0.127	0.201	-0.27	-0.29
GGCCGCAAAUUGCACAAUUUGCCCCC [SHAPE_invivo_SARS-CoV-2_Motif_557]	0.76	-0.213	0.62	-0.187
GGCCUCACGGCC [IAV_invivo_PB1_2_Motif_9+IAV_invivo_PB1_2_Motif_9]	0.0835	-0.914	-0.332	-0.354
GGCCUGGGCCUGGGCCUGGGCCUGGGCCUGGGCCUG [r(GGCCUG)6]	0.00804	0.12	-0.184	-0.435
GGCCUUGAAGCC [SHAPE_invitro_SARS-CoV-2_Motif_466]	-0.406	-0.459	-0.703	-0.216
GGCGAAUCUGGCGCC [IAV_invivo_NP_5_Motif_7+IAV_invivo_NP_5_Motif_7]	0.577	0.288	0.493	-0.231
GGCGAUAGUUGUAAUAACUAUAUGCU	-1.04	-0.976	-1.31	-0.564
GGCGAUUUUGUUAAAGCCACUUGCGAAUUUUGUGGCACUGAGAAUUUGACUAAAGAAGGUGCCACUACUUGUGGUUACUUACCCCAAAAUGCU	0.452	0.59	0.66	0.278
GGCGUAAGUCUGAUACUUACCUG [U1snRNP5ss-10]	0.212	1.08	0.668	0.0886
GGCGUCUCAAGGCACC [IAV_invivo_NP_5_Motif_2+IAV_invivo_NP_5_Motif_2]	0.308	-0.084	0.151	-0.687
GGCGUUGUCCUGCUGAAAUUGUUGACACUGUGAGUGCUUUGGUUUAUGAUAAUAAGCUUAAAGCACAUAAAGACAAAUCAGCUCAAUGCU	-0.58	0.182	-0.324	-0.302
GGCUAUGGUUUCCAGAGCC [IAV_invivo_PB1_2_Motif_37+IAV_invivo_PB1_2_Motif_37]	0.417	-0.356	0.285	-0.179
GGCUAUGUAACACAUGGCU	-0.114	-1.06	-0.351	-0.449
GGCUCAUAGACUUCCUUAAGGAUGUAAUGGAGUC [IAV_invivo_PB1_2_Motif_10+IAV_invivo_PB1_2_Motif_10]	0.164	1.62	0.795	-0.15
GGCUGGAUCGAGUGAGCAAGCAGCAGAGGCC [IAV_invivo_M1_M2_7_Motif_14+IAV_invivo_M1_M2_7_Motif_14]	0.316	2.47	1.37	0.757
GGCUGGUGGCACUACUGAAAUGCUAGCGAAAGCUUUGAGAAAAGUGCCAACAGAC	0.234	0.4	0.418	-0.33
GGCUGUAGUUGUGAUCAACUCCGCGAACCCAUGCUUCAGUCAGCUGAUGCACAAUCGUUUUUAAACGGGUUUGCGGUGUAAGUGCAGCC [DMSMaPseq_invitro_SARS-CoV-2_Motif_241]	-0.355	0.388	-0.133	-0.0355
GGCUUCAUCAAACAAUAUGGUGAUUGCC	-0.151	-1.01	-0.484	-0.331
GGCUUCAUUUAAUUAUUUGAAGUC	-0.867	-1.75	-1.24	-0.711
